B1: Protein sprouty homolog 1 (Homo sapiens), O43609 (parent)
chain: MDPQNQHGSGSSLVVIQQPSLDSRQRLDYEREIQPTAILSLDQIKAIRGSNEYTEGPSVVKRPAPRTAPRQEKHERTHEIIPINVNNNYEHRHTSHLGHAVLPSNARGPILSRSTSTGSAASSGSNSSASSEQGLLGRSPPTRPVPGHRSERAIRTQPKQLIVDDLKGSLKEDLTQHKFICEQCGKCKCGECTAPRTLPSCLACNRQCLCSAESMVEYGTCMCLVKGIFYHCSNDDEGDSYSDNPCSCSQSHCCSRYLCMGAMSLFLPCLLCYPPAKGCLKLCRRCYDWIHRPGCRCKNSNTVYCKLESCPSRGQGKPS
B2: Four and a half LIM domains protein 3 (Homo sapiens), Q13643 (parent)
chain: MSESFDCAKCNESLYGRKYIQTDSGPYCVPCYDNTFANTCAECQQLIGHDSRELFYEDRHFHEGCFRCCRCQRSLADEPFTCQDSELLCNDCYCSAFSSQCSACGETVMPGSRKLEYGGQTWHEHCFLCSGCEQPLGSRSFVPDKGAHYCVPCYENKFAPRCARCSKTLTQGGVTYRDQPWHRECLVCTGCQTPLAGQQFTSRDEDPYCVACFGELFAPKCSSCKRPIVGLGGGKYVSFEDRHWHHNCFSCARCSTSLVGQGFVPDGDQVLCQGCSQAGP
partner: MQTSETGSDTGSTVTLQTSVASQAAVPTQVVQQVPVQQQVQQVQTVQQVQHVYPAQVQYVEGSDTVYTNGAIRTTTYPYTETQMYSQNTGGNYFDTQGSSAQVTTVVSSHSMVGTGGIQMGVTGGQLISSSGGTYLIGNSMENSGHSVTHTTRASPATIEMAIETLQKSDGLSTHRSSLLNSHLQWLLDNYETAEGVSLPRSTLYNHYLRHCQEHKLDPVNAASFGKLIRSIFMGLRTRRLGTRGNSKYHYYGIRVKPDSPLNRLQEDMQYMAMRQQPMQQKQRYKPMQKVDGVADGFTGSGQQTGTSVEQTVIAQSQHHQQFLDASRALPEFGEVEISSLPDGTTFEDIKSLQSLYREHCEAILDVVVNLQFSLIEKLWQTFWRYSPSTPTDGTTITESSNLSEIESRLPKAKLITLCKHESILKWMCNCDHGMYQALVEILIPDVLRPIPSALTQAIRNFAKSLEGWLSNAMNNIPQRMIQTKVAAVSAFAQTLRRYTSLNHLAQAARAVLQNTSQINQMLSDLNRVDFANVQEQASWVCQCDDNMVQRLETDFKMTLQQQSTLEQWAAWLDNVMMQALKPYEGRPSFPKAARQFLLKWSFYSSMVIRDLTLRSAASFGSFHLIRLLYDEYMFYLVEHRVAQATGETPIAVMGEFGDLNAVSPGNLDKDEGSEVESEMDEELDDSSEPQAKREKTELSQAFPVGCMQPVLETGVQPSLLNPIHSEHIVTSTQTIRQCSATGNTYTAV
B3: Serine/threonine-protein kinase PAK 5 (Homo sapiens), Q9P286 (parent)
chain: MFGKKKKKIEISGPSNFEHRVHTGFDPQEQKFTGLPQQWHSLLADTANRPKPMVDPSCITPIQLAPMKTIVRGNKPCKETSINGLLEDFDNISVTRSNSLRKESPPTPDQGASSHGPGHAEENGFITFSQYSSESDTTADYTTEKYREKSLYGDDLDPYYRGSHAAKQNGHVMKMKHGEAYYSEVKPLKSDFARFSADYHSHLDSLSKPSEYSDLKWEYQRASSSSPLDYSFQFTPSRTAGTSGCSKESLAYSESEWGPSLDDYDRRPKSSYLNQTSPQPTMRQRSRSGSGLQEPMMPFGASAFKTHPQGHSYNSYTYPRLSEPTMCIPKVDYDRAQMVLSPPLSGSDTYPRGPAKLPQSQSKSGYSSSSHQYPSGYHKATLYHHPSLQSSSQYISTASYLSSLSLSSSTYPPPSWGSSSDQQPSRVSHEQFRAALQLVVSPGDPREYLANFIKIGEGSTGIVCIATEKHTGKQVAVKKMDLRKQQRRELLFNEVVIMRDYHHDNVVDMYSSYLVGDELWVVMEFLEGGALTDIVTHTRMNEEQIATVCLSVLRALSYLHNQGVIHRDIKSDSILLTSDGRIKLSDFGFCAQVSKEVPKRKSLVGTPYWMAPEVISRLPYGTEVDIWSLGIMVIEMIDGEPPYFNEPPLQAMRRIRDSLPPRVKDLHKVSSVLRGFLDLMLVREPSQRATAQELLGHPFLKLAGPPSCIVPLMRQYRHH
partner: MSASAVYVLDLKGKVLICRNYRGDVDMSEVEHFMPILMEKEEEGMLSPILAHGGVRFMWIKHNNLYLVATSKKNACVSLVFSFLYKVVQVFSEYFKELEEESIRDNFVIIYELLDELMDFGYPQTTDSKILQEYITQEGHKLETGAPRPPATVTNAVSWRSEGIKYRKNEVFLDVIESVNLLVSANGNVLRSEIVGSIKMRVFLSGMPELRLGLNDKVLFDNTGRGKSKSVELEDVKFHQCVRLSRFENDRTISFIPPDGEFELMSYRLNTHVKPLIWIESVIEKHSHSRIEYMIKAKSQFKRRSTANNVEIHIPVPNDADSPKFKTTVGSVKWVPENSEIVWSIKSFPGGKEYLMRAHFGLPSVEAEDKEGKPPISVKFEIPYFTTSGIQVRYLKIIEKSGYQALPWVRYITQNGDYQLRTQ

Variants of: B1
Conditions: with nt2na_human NOTCH2NLA

effect of a mutation on the interaction	Variant
with no effect	R24H
with no effect	A37T

Variants of: B1
Conditions: with otx1_human OTX1, P32242
Sequence of otx1_human OTX1, P32242 (P32242 whole entry): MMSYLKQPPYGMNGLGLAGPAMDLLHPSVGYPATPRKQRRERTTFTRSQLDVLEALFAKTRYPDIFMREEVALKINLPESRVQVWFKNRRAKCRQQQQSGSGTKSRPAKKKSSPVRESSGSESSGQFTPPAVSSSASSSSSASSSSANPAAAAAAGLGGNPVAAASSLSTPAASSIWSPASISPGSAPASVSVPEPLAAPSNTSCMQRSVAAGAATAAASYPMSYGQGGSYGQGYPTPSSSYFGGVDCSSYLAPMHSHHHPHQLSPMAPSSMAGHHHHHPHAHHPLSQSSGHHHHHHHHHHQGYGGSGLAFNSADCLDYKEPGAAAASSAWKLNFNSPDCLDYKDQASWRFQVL

effect of a mutation on the interaction	Variant
with no effect	R24H
with no effect	A37T

Variants of: B1
Conditions: with meox2_human MEOX2, P50222
Sequence of meox2_human MEOX2, P50222 (P50222 whole entry): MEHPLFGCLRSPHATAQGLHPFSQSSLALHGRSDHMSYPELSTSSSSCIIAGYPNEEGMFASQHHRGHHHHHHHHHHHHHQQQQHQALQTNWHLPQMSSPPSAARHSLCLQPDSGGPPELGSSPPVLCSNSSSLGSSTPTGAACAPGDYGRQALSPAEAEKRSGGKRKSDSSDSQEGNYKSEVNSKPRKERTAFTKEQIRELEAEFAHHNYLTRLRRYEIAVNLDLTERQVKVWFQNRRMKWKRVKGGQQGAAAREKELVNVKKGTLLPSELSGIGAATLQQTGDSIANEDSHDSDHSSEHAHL

effect of a mutation on the interaction	Variant
with no effect	R24H
with no effect	A37T

Variants of: B1
Conditions: with kr101_human KRTAP10-1, P60331
Sequence of kr101_human KRTAP10-1, P60331 (P60331 whole entry): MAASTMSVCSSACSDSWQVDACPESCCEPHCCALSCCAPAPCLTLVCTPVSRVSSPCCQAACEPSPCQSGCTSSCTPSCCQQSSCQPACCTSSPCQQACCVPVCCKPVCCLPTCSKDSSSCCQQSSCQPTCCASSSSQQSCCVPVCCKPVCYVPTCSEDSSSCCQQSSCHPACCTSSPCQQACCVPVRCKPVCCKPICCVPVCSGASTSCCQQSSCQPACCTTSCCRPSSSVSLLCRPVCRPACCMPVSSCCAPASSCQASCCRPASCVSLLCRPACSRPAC

effect of a mutation on the interaction	Variant
with no effect	R24H
with no effect	A37T

Variants of: B2
Conditions: with rfx3_human RFX3, P48380

effect of a mutation on the interaction	Variant
with no effect	R226H

Variants of: B3
Conditions: with ap1m1_human AP1M1, Q9BXS5

effect of a mutation on the interaction	Variant
with no effect	V604I

Reference: IntAct's records for PubMed 31515488
